From the supplement of paper PMC7877785
± gives the uncertainty stated by the source.

Experiment: self-splicing fitness, log relative to wild type (ln ratio); higher = more splicing; Tetrahymena group I intron in knt gene, E. coli kanamycin selection, DiMSum; sequences stand for … in CUCUCU…GGAGGGAAAAGUUAUCAGGCAUGCACCUGGUAGCUAGUCUUUAAACCAAUAGAUUGCAUCGGUUUAAAAGGCAAGACCGUCAAAUUGCGGGAAAGGGGUCAACAGCCGUUCAGUACCAAGUCUCAGGGGAAACUUUGAGAUGGCCUUGCAAAGGGUAUGGUAAUAAGCUGACGGACAUGGUCCUAACCACGCAGCCAAGUCCUAAGUCAACAGAUCUUCUGUUGAUAUGGAUGCAGUUCACAGACUAAAUGUCGGUCGGGGAAGAUGUAUUCUUCUCAUAAGAUAUAGUCGGACCUCUCCUUAAUGGGAGCUAGCGGAUGAAGUGAUGCAACACUGGAGCCGCUGGGAACUAAUUUGUAUGCGAAAGUAUAUUGAUUAGUUUUGGAGUACUCGUGGUCG
Method in brief: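 Fitness was computed with DiMSum as the error-weighted combination of replicate fold changes, kanamycin versus none, each normalised to wild type. The library randomised all eight intron nucleotides of the P1ex region, with the intron placed in the knt kanamycin-resistance gene on pET-22b(+) in E. coli BL21(DE3). Six replicate transformations were grown overnight at 37°C or 30°C on LB agar with or without 25 μg/mL kanamycin, plus 100 μg/mL carbenicillin, 50 μM IPTG and 0.2% rhamnose. Pooled colonies were amplicon-sequenced on an Illumina HiSeq 2500.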

| Sequence | self-splicing fitness (ln) (30 °C) | self-splicing fitness (ln) (37 °C) |
| --- | --- | --- |
| CGAAAGCAAUAUUACGGUAU | -3.81 ± 0.29 | -1.2 ± 0.19 |
| UCUUAGCAAUAUUACGGCAU | -3.42 ± 0.33 | -1.75 ± 0.23 |
| GGCUAGCAAUAUUACGUACC | -0.292 ± 0.21 | 0.368 ± 0.23 |
| CGUCAGCAAUAUUACGGCCG | -0.623 ± 0.12 | 0.482 ± 0.15 |
| UCAGAGCAAUAUUACGAUGA | -0.825 ± 0.2 | 0.109 ± 0.21 |
| AUCAAGCAAUAUUACGCGCC | -1.23 ± 0.14 | -0.474 ± 0.17 |
| UUCGAGCAAUAUUACGCGAC | -3.69 ± 0.32 | -1.18 ± 0.19 |
| AUCCAGCAAUAUUACGCGUU | -1.06 ± 0.087 | -0.503 ± 0.1 |
| ACCGAGCAAUAUUACGGAGU | -3.72 ± 0.25 | -2.11 ± 0.18 |
| CUACAGCAAUAUUACGUGGC | -3.68 ± 0.29 | -2.44 ± 0.32 |
| UCAUAGCAAUAUUACGUGAU | -3.82 ± 0.17 | -2.62 ± 0.2 |
| UCUGAGCAAUAUUACGUUGG | -0.956 ± 0.13 | -0.905 ± 0.15 |
| ACCCAGCAAUAUUACGCUGA | -1.63 ± 0.087 | -0.241 ± 0.092 |
| ACUCAGCAAUAUUACGAUUC | -1.63 ± 0.087 | -0.302 ± 0.1 |
| GCUAAGCAAUAUUACGUAUA | -1.76 ± 0.12 | -0.55 ± 0.13 |
| ACAGAGCAAUAUUACGAUAA | -4.19 ± 0.46 | -2.51 ± 0.36 |
| GGCAAGCAAUAUUACGGCGU | -0.154 ± 0.088 | 0.316 ± 0.12 |
| AUCAAGCAAUAUUACGUGCA | -0.986 ± 0.077 | -0.556 ± 0.088 |
| CAAUAGCAAUAUUACGUUAA | -2.95 ± 0.18 | -2.8 ± 0.23 |
| CGGUAGCAAUAUUACGCAAC | – | -1.42 ± 0.35 |
| GCGGAGCAAUAUUACGAUGU | -2.73 ± 0.26 | -1.02 ± 0.22 |
| CUUUAGCAAUAUUACGGACU | -4.41 ± 0.31 | -3.71 ± 0.28 |

| Sequence | self-splicing fitness (ln) (30 °C) | self-splicing fitness (ln) (37 °C) |
| --- | --- | --- |
| UAAGAGCAAUAUUACGUGUU | -3.32 ± 0.18 | -2.96 ± 0.3 |
| UUAAAGCAAUAUUACGCGGG | -0.482 ± 0.11 | -1.29 ± 0.13 |
| UGAGAGCAAUAUUACGGGUA | -2.66 ± 0.37 | – |
| UUAGAGCAAUAUUACGAGCA | -2.27 ± 0.42 | -1.09 ± 0.32 |
| AUGGAGCAAUAUUACGUCCU | -0.886 ± 0.24 | -1.35 ± 0.29 |
| UGCAAGCAAUAUUACGCACC | -1.89 ± 0.24 | -1.25 ± 0.32 |
| GAGCAGCAAUAUUACGUUAC | -2.55 ± 0.14 | -1.75 ± 0.13 |
| UACAAGCAAUAUUACGGAGG | -3.94 ± 0.22 | -2.03 ± 0.16 |
| UACUAGCAAUAUUACGGGGU | -4.05 ± 0.19 | -2.71 ± 0.2 |
| GCAGAGCAAUAUUACGUCGA | – | -1.58 ± 0.21 |
| AGGGAGCAAUAUUACGUAAC | -2.23 ± 0.28 | -2.99 ± 0.29 |
| UAUGAGCAAUAUUACGCUGC | -4.14 ± 0.31 | -2.78 ± 0.3 |
| GUACAGCAAUAUUACGGGUC | -4.33 ± 0.31 | -2.79 ± 0.33 |
| GGAGAGCAAUAUUACGGAAG | -2.47 ± 0.32 | -0.843 ± 0.41 |
| UGGCAGCAAUAUUACGAAUG | -0.811 ± 0.061 | 0.188 ± 0.079 |
| AAAGAGCAAUAUUACGUCGG | -3.89 ± 0.24 | -1.71 ± 0.2 |
| UUAUAGCAAUAUUACGCUUG | -1.46 ± 0.19 | -0.162 ± 0.22 |
| AAACAGCAAUAUUACGACAA | -0.939 ± 0.095 | -0.417 ± 0.11 |
| UGCGAGCAAUAUUACGCCAG | -4.1 ± 0.42 | – |
| GUUCAGCAAUAUUACGACGU | 0.000808 ± 0.063 | 0.108 ± 0.08 |
| CAUAAGCAAUAUUACGUGCG | -1.15 ± 0.079 | -0.792 ± 0.098 |
